Several values for one entry are separate records, joined by “and”; a condition that tells them apart may be missing. Identical values can stand only once.
Assays:
[1] = tested on: esterase enzyme; experiment: Effect of sodium chloride on enzyme stability (24 hours incubation); assay type: biochemical, microflora of Ac1göl (Aci Lake)
Method: (§1) 6. Standard activity test: Activity has been measured based on the pNP measurement that is obtained by the hydrolysis of the paranitfrophenol (pNP) esters by the enzyme (Winkler and Stuckmann, 1979). The final concentration of the enzyme and substrate have been 1 μM and 1 mM respectively and absorbance measurements have been taken at 410 nm. The activity has been calculated by means of the below formula and one unit of activity has been defined as the enzyme amount which produces 1 μmol product in 1 minute.
(§2) Activity (U/L)=[(ΔAbs/t)/(ε*d)]*106*Vt/Vs • ΔAbs=Absorbance change; t=time (minute); ε=extinction coefficient (M−1 cm−1); d=light path (cm); Vt=total reaction volume; Vs=enzyme volume used in reaction.
(§3) The effect of sodium chloride on the activity (5%, 10%, 15%, 20% and 25% NaCl) and the stability (10%, 15%, 20% and 25% NaCl) of the enzyme has been determined similarly. The enzyme has been incubated in a buffer solution comprising sodium chloride at the defined amounts for 24 hours during stability tests.

[2] = tested on: esterase enzyme; experiment: Effect of sodium chloride on enzyme activity; assay type: biochemical, microflora of Ac1göl (Aci Lake)
Method: as §1, §2, §3

[3] = Effect of pH on enzyme activity; assay type: biochemical, microflora of Ac1göl (Aci Lake)
Method: as §1, §2
(§4) 8. Measuring the activity and stability of the enzyme under different conditions: Reactions have been carried out in buffer solutions (50 mM citrate/phosphate buffer, pH 6; 50 mM Tris-HCl buffer, pH 7, 8 and 8.5; 50 mM glycine-NaOH buffer, pH 9, 9.5 and 10) having different pH values in order to determine the optimum pH value in which the enzyme works. Moreover, in order to measure the pH stability of the enzyme, the enzyme has been incubated for 24 hours before reaction in these buffer solutions and the activity value remaining at the end of the incubation has been calculated.

[4] = assay type: biochemical, microflora of Ac1göl (Aci Lake)
Method: as §1, §2, §4

[5] = assay type: biochemical, microflora of Ac1göl (Aci Lake); remark: listed apart in the source
Method: as §1, §2
(§5) The reaction has been carried out under different temperatures (5° C.-70° C.) in order to determine the optimum temperature in which the enzyme works efficiently, and the activity has been measured. In order to determine the thermal stability of the enzyme, the enzyme has been incubated for 20 minutes between 25° C.-80° C. temperature and the remaining activity has been measured according to standard tests.

[6] = Effect of temperature on enzyme activity (standard pNP ester activity test); assay type: biochemical, microflora of Ac1göl (Aci Lake)
Method: as §1, §2, §5

Molecule: [Cl-].[Na+] [sodium chloride]
- The effect of sodium chloride on stability, Activity (%) ([1]; Concentration 10.0 %): 100 ± 4.8%
- The effect of sodium chloride on stability, Activity (%) ([1]; Concentration 15.0 %): 99 ± 1.8%
- The effect of sodium chloride on stability, Activity (%) ([1]; Concentration 20.0 %): 102.7 ± 1%
- The effect of sodium chloride on stability, Activity (%) ([1]; Concentration 25.0 %): 101.4 ± 4.5%
- The effect of sodium chloride on activity, Activity (%) ([2]; Concentration 1 %): 100 ± 1.9%
- The effect of sodium chloride on activity, Activity (%) ([2]; Concentration 5 %): 90.2 ± 2.1%
- The effect of sodium chloride on activity, Activity (%) ([2]; Concentration 10 %): 79.2 ± 5%
- The effect of sodium chloride on activity, Activity (%) ([2]; Concentration 15 %): 52 ± 5.3%
- The effect of sodium chloride on activity, Activity (%) ([2]; Concentration 20 %): 39.2 ± 6.3%

B1: enzyme: novel esterase (SEQ ID NO: 2, 260 amino acids) obtained by metagenomic method from the microflora of Ac1göl (protein)
chain: MTVDLNHLDTGGEGIPLVVIHGLLGSADNWRSHVKQWQQQCRVVAVDLRNHGRSPHADGMSYAAMAADLEALLDRLGIERAHLLGHSMGGKVAISVARLHPQRVASLIVADIAPQAYGHDHDAVFAGLRRVEQGQPGNRREADALLAEHVEERAVRLFLATNLERDDDGILRLRIGLDEIEGDYDAIMQAPAGEGSYDGPVLVLRGDRSPYVTDAMLPRLHQVLPQAQLVTLENAGHWLHAEQPEAFQAAVNDFLASLEA
modifications: Metagenomic Sequence
- pH value at which the enzyme worked best [3]: 9 pH
- The effect of pH on activity, Activity (%) ([3]; pH 6): 10.3 ± 4.1%
- The effect of pH on activity, Activity (%) ([3]; pH 7): 68.8 ± 8.2%
- The effect of pH on activity, Activity (%) ([3]; pH 8): 77.1 ± 6.8%
- The effect of pH on activity, Activity (%) ([3]; pH 8.5): 84 ± 5.2%
- The effect of pH on activity, Activity (%) ([3]; pH 9): 100 ± 1.3%
- The effect of pH on activity, Activity (%) ([3]; pH 9.5): 84.9 ± 1.5%
- The effect of pH on activity, Activity (%) ([3]; pH 10): 20 ± 8.1%
- pH up to which the enzyme maintained its stability [4]: ≤ 10 pH
- temperature up to which the enzyme maintained the stability [5]: up to 55 °C
- temperature of best activity [6]: 30 °C
- Effect of temperature on activity, Activity (%) ([6]; reaction at 5 ° C.): 47% and 46.6 ± 6.1%
- Effect of temperature on activity, Activity (%) ([6]; reaction at 10 ° C.): 53.8 ± 7.4%
- Effect of temperature on activity, Activity (%) ([6]; reaction at 15 ° C.): 63% and 63.1 ± 5.1%
- Effect of temperature on activity, Activity (%) ([6]; reaction at 20 ° C.): 76.9 ± 4.4%
- Effect of temperature on activity, Activity (%) ([6]; reaction at 25 ° C.): 93.1 ± 6.3%
- Effect of temperature on activity, Activity (%) ([6]; reaction at 30 ° C.): 100 ± 4.8%
- Effect of temperature on activity, Activity (%) ([6]; reaction at 35 ° C.): 94.4 ± 1.5%
- Effect of temperature on activity, Activity (%) ([6]; reaction at 40 ° C.): 82.4 ± 2.8%
- Effect of temperature on activity, Activity (%) ([6]; reaction at 45 ° C.): 22.5 ± 0.8%
- Effect of temperature on activity, Activity (%) ([6]; reaction at 50 ° C.): 17.7 ± 0.3%
- Effect of temperature on activity, Activity (%) ([6]; reaction at 55 ° C.): 14.4 ± 4.5%
- Effect of temperature on activity, Activity (%) ([6]; reaction at 60 ° C.): 12.9 ± 2.9%
- Effect of temperature on activity, Activity (%) ([6]; reaction at 65 ° C.): 11.1 ± 4.2%
- Effect of temperature on activity, Activity (%) ([6]; reaction at 70 ° C.): 8.2 ± 0.8%
